Laboratory results published in article PMC8691596.
Numbering of substitutions follows the chain as printed. Names may count otherwise. Read-outs that look alike come from different tables or passages of the source.

Tests used:
[1] = biological target: anti-CD20 IgG1 L234S/L235T/G236R (human); assay: SPR; antibody captured by biotin-labelled anti-human κ light chain on streptavidin CM5; soluble Fcγ receptor injected at one concentration ([…] to 18 μM); HBS-EP+ pH 7.4, 25°C; Biacore 8K
[2] = biological target: anti-CD20 IgG1 L234S/L235T/G236R (human); assay: as above; remark: listed apart in the source
[3] = biological target: human FcγRIIIa (CD16a) F158 allele, histidine-tagged recombinant (human) (UniProt P08637); assay: SPR; His-tagged Fc receptor captured by anti-histidine antibody immobilised on CM5; antibody injected at 100 μg/mL for 1 min; response about 5 s before end of injection, blank subtracted; 25°C, HBS-EP+; Biacore T200
[4] = biological target: human FcγRIIIa (CD16a) V158 allele, histidine-tagged recombinant (human) (UniProt P08637); assay: as above
[5] = biological target: rat FcγRI (CD64), histidine-tagged recombinant (rat); assay: as above
[6] = remark: other sources report otherwise

B1: mouse FcγRI extracellular domain, C-terminal hexa-His (independently-made panel) (receptor)
chain: EVVNATKAVITLQPPWVSIFQKENVTLWCEGPHLPGDSSTQWFINGTAVQISTPSYSIPEASFQDSGEYRCQIGSSMPSDPVQLQIHNDWLLLQASRRVLTEGEPLALRCHGWKNKLVYNVVFYRNGKSFQFSSDSEVAILKTNLSHSGIYHCSGTGRHRYTSAGVSITVKELFTTPVLRASVSSPFPEGSLVTLNCETNLLLQRPGLQLHFSFYVGSKILEYRNTSSEYHIARAEREDAGFYWCEVATEDSSVLKRSPELELQVLGPQSSAP
[1]
  response: < 1 RU

B2: human FcγRIIa H131 extracellular domain, C-terminal hexa-His (independently-made panel), P12318 34-217 (receptor)
chain: QAAAPPKAVLKLEPPWINVLQEDSVTLTCQGARSPESDSIQWFHNGNLIPTHTQPSYRFKANNNDSGEYTCQTGQTSLSDPVHLTVLSEWLVLQTPHLEFQEGETIMLRCHSWKDKPLVKVTFFQNGKSQKFSHLDPTFSIPQANHSHSGDYHCTGNIGYTLFSSKPVTITVQVPSMGSSSPMG
[2]; [6]
  response: < 1 RU

B3: human FcγRIIa R131 extracellular domain, C-terminal hexa-His (independently-made panel), P12318 34-217 (receptor)
chain: B2 chain with H134R
modifications: not checked
[2]
  response: < 1 RU

B4: mouse FcγRIIb extracellular domain, C-terminal hexa-His (receptor)
chain: THDLPKAVVKLEPPWIQVLKEDTVTLTCEGTHNPGNSSTQWFHNGRSIRSQVQASYTFKATVNDSGEYRCQMEQTRLSDPVDLGVISDWLLLQTPQLVFLEGETITLRCHSWRNKLLNRISFFHNEKSVRYHHYSSNFSIPKANHSHSGDYYCKGSLGRTLHQSKPVTITVQGPKSSRSLP
[1]
  response: < 1 RU

B5: mouse FcγRIII extracellular domain, C-terminal hexa-His (receptor)
chain: ALPKAVVKLDPPWIQVLKEDMVTLMCEGTHNPGNSSTQWFHNGRSIRSQVQASYTFKATVNDSGEYRCQMEQTRLSDPVDLGVISDWLLLQTPQRVFLEGETITLRCHSWRNKLLNRISFFHNEKSVRYHHYKSNFSIPKANHSHSGDYYCKGSLGSTQHQSKPVTITVQDPATTSSISLVWYHT
[1]
  response: < 1 RU

B6: anti-CD52 IgG1 L234A/L235A (LALA) (antibody, V domains shown)
VH: QVQLQESGPGLVRPSQTLSLTCTVSGFTFTDFYMNWVRQPPGRGLEWIGFIRDKAKGYTTEYNPSVKGRVTMLVDTSKNQFSLRLSSVTAADTAVYYCAREGHTAAPFDYWGQGSLVTVSS
VL: DIQMTQSPSSLSASVGDRVTITCKASQNIDKYLNWYQQKPGKAPKLLIYNTNNLQTGVPSRFSGSGSGTDFTFTISSLQPEDIATYYCLQHISRPRTFGQGTKLEIK
[3]
  mean response: 17 RU
[4]
  mean response: 63.2 RU

B7: anti-CD52 IgG1 N297Q (aglycosyl) (antibody, V domains shown)
VH: B6 VH
VL: B6 VL
[5]
  mean response: 488 RU

B8: cynomolgus monkey FcγRIII extracellular domain, C-terminal hexa-His (receptor)
chain: GMRAEDLPKAVVFLEPQWYRVLEKDRVTLKCQGAYSPEDNSTRWFHNESLISSQTSSYFIAAARVNNSGEYRCQTSLSTLSDPVQLEVHIGWLLLQAPRWVFKEEESIHLRCHSWKNTLLHKVTYLQNGKGRKYFHQNSDFYIPKATLKDSGSYFCRGLIGSKNVSSETVNITITQDLAVSSISSFFPPGYQ
[2]; [6]
  response: < 1 RU
